In article PMC8084299, “Peculiarities of the Presentation of the Encephalitogenic MBP Peptide by HLA-DR Complexes Providing Protection and Predisposition to Multiple Sclerosis” (Acta Naturae, 2021):

Biological target: HLA-DR15 (HLA-DRB1*1501) (Homo sapiens, UniProt P01903+P01911)
Experiment: Competitive ELISA against biotinylated pp65 (pp65bio) for binding to HLA-DR
Details: pp65bio 150 nM, HLA-DR15 150 nM, non-biotinylated competitor 7.8 nM - 1 μM, HLA-DM 150 nM, PBS, 37°C, 18 h, triplicate, ± SD, read-out: IC50 in competition with pp65bio for HLA-DR15

- IC50: 120 ± 20 nM
Substance: MBP85-97: myelin basic protein peptide 85-97 fused to C-terminus of bacterial thioredoxin through (SGGGG)3S linker with His-tags (PVVHFFKNIVTPR; not fully specified; C-terminal fusion to thioredoxin via (SGGGG)3S linker (left out))
